Experiments:
[1] = biological target: T1, human IGF-1R on H322M non-small cell lung cancer cells (human, UniProt P08069 31-1367); experiment: flow cytometry on H322M cells
T1 construct: Endogenous receptor of the tumor cell line; also called cell surface IGF-1R
Protocol: (§1) Cell lines were routinely cultured no greater than 20 passages. Flow cyotometric analysis of antibody binding to human cancer cells. Cells were lifted with cell dissociation buffer (Gibco catalog #13151-014), counted, washed and adjusted to 5×10⁶ cells/ml. Cells (2.5×10⁵; 50 uL) were added to each well of a 96-well round bottom plate (Costar #3799). Purified antibodies were tested at a starting concentration of 300 nM with serial half-log dilutions in FACS buffer. FACS buffer used throughout the assay was PBS (without Ca++/Mg++) containing 5% FBS. Samples were incubated on ice for 30 minutes, washed 3× with 200 uL FACS buffer and centrifuged at 1200 rpm for 3 minutes at 4° C. C2B8 (rituximab, IgG1) was used as a negative control. […] Samples were incubated for an additional 30 minutes on ice, shielded from light. Cells were washed as described above and resuspended in 100 μl FACS buffer containing propidium iodide (PI) for dead cell exclusion (BD Pharmingen, catalog# 51-66211E or 556463; use at 1:500 final in FACS buffer). Samples were run in triplicate using the FACSArray flow cytometer (Becton Dickinson) with 5000 live events collected per sample. Data analysis was performed using the GraphPad Prism version 5.0 software (GraphPad Software Inc., 11452 El Camino Real #215, San Diego, Calif. 92130). Results. […]

[2] = biological target: T1, human IGF-1R on H322M non-small cell …; experiment: flow cytometry on H322M cells, anti-human Fc PE secondary (FIG. 55B)
Protocol: as §1

[3] = biological target: T2, hIGF-1R-Fc mutant SD010 (G271D) (human, UniProt P08069 31-933); experiment: SPR: receptor-Fc captured on M13-C06 chip, then M13-C06 Fab; relative to wild type
T2 construct: not shown: human IgG1 Fc, C-terminal tag
Protocol: (§2) After, completion of the receptor-Fc loading step, flow rates were elevated to 5 μl/min. […] At the end of each sensorgram, the flow rate was elevated to 30 μl/min and the chip surface was regenerated by 2×10 μL injections of 0.1 M glycine, pH 2.

[4] = biological target: T3, hIGF-1R-Fc mutant SD005 (A217T) (human, UniProt P08069 31-933); experiment: as above
T3 construct: not shown: human IgG1 Fc, C-terminal tag
Protocol: as §2

[5] = biological target: T4, hIGF-1R-Fc mutant SD014 (K412A, A413Q) (human, UniProt P08069 31-933); experiment: as above
T4 construct: not shown: human IgG1 Fc, C-terminal tag
Protocol: as §2

[6] = biological target: T5, hIGF-1R-Fc mutant SD011 (G285S, S286T) (human, UniProt P08069 31-933); experiment: as above
T5 construct: not shown: human IgG1 Fc, C-terminal tag
Protocol: as §2

[7] = biological target: T6, hIGF-1R-Fc mutant SD016 (D531Q, V532N) (human, UniProt P08069 31-933); experiment: as above
T6 construct: not shown: human IgG1 Fc, C-terminal tag
Protocol: as §2

[8] = biological target: T7, hIGF-1R-Fc mutant SD012 (E303G) (human, UniProt P08069 31-933); experiment: as above
T7 construct: not shown: human IgG1 Fc, C-terminal tag
Protocol: as §2

[9] = biological target: T8, hIGF-1R-Fc mutant SD003 (T188F) (human, UniProt P08069 31-933); experiment: as above
T8 construct: not shown: human IgG1 Fc, C-terminal tag
Protocol: as §2

[10] = biological target: T9, hIGF-1R-Fc mutant SD018 (E665A) (human, UniProt P08069 31-933); experiment: as above
T9 construct: not shown: human IgG1 Fc, C-terminal tag
Protocol: as §2

[11] = biological target: T10, hIGF-1R-Fc mutant SD002 (M156A) (human, UniProt P08069 31-933); experiment: as above
T10 construct: not shown: human IgG1 Fc, C-terminal tag
Protocol: as §2

T1 sequence (P08069 31-1367, stated change not applied): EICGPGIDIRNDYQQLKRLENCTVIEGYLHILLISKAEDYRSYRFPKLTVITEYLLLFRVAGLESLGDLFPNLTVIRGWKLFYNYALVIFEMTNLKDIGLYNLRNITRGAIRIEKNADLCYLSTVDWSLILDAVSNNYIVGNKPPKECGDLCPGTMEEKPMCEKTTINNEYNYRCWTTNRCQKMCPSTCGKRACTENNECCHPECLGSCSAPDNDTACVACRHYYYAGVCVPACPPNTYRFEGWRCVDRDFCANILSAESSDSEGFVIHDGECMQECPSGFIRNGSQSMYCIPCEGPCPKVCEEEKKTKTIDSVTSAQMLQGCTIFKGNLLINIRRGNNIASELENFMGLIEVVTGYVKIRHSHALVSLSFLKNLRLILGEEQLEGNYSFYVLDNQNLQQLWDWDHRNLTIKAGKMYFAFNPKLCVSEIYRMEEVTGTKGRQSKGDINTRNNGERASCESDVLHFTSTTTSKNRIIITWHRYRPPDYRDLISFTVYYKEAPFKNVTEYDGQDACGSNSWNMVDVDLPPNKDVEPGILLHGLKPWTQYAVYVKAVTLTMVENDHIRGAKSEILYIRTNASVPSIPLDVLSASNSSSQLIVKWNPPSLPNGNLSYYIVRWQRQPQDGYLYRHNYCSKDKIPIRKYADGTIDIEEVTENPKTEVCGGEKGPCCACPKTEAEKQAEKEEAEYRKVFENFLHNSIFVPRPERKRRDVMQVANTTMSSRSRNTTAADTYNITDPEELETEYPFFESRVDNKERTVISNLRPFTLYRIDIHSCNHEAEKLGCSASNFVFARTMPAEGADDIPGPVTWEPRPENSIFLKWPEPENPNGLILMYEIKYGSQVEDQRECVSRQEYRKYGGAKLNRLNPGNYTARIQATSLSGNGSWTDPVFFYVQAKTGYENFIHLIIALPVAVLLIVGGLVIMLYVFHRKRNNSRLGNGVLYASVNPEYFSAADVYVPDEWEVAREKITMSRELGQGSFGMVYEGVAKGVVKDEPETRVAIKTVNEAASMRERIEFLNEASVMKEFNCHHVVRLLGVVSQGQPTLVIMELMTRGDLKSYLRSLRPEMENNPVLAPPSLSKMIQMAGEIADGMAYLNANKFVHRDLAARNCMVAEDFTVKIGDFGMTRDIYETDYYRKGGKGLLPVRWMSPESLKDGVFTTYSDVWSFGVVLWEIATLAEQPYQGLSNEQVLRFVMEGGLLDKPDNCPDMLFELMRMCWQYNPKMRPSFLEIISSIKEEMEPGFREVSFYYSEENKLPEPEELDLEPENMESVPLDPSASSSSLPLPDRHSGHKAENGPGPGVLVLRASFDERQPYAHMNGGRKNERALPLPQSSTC
T2 sequence (P08069 31-933 G301D): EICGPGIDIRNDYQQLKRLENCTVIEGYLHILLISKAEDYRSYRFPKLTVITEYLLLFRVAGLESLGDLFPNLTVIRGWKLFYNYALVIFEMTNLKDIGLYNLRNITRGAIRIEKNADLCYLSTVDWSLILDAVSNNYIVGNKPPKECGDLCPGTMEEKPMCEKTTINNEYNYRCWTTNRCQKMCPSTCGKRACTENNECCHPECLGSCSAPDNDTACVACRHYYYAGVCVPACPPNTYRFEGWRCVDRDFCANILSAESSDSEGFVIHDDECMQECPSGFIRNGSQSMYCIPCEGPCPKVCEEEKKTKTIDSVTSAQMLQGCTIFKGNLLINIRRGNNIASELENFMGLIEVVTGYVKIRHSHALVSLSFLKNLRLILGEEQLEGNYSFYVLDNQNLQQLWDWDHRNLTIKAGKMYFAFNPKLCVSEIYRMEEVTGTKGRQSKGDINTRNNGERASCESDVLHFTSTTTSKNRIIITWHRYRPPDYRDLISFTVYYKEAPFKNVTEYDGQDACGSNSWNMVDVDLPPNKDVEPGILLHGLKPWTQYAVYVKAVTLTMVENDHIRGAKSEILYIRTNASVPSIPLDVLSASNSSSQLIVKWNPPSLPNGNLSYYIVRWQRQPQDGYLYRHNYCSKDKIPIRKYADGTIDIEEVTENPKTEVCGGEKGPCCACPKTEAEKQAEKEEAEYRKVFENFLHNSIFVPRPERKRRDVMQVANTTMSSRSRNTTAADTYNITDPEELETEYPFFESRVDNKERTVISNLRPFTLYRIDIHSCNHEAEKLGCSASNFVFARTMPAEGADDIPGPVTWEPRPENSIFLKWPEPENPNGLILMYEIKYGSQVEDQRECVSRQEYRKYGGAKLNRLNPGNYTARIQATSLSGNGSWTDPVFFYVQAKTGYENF
T10 sequence (P08069 31-933 M186A): as the sequence (P08069 31-933 G301D) above, with M156A, D271G counted along it
T7 sequence (P08069 31-933 E333G): as the sequence (P08069 31-933 G301D) above, with D271G, E303G counted along it
T6 sequence (P08069 31-933 D561Q/V562N): as the sequence (P08069 31-933 G301D) above, with D271G, D531Q, V532N counted along it
T5 sequence (P08069 31-933 G315S/S316T): as the sequence (P08069 31-933 G301D) above, with D271G, G285S, S286T counted along it
T9 sequence (P08069 31-933 E695A): as the sequence (P08069 31-933 G301D) above, with D271G, E665A counted along it
T4 sequence (P08069 31-933 K442A/A443Q): as the sequence (P08069 31-933 G301D) above, with D271G, K412A, A413Q counted along it
T8 sequence (P08069 31-933 T218F): as the sequence (P08069 31-933 G301D) above, with T188F, D271G counted along it
T3 sequence (P08069 31-933 A247T): as the sequence (P08069 31-933 G301D) above, with A217T, D271G counted along it

B1: M13-C06 antibody (antibody, V domains shown)
VH: EVQLLESGGGLVQPGGSLRLSCAASGFTFSIYRMQWVRQAPGKGLEWVSGISPSGGTTWYADSVKGRFTISRDNSKNTLYLQMNSLRAEDTAVYYCARWSGGSGYAFDIWGQGTMVTVSS
VL: DIQMTQSPLSLSASVGDRVTITCQASRDIRNYLNWYQQKPGKAPKLLIYDASSLQTGVPSRFGGSGSGTDFSFTIGSLQPEDIATYYCQQFDSLPHTFGQGTKLEIK
notes: Fully human full-length antibody (ATCC PTA-7444); also called M13.C06.G4.P.agly; M13-C06.G4P.agly
- EC50 [1]: < 1 nM
- EC50 [2]: 0.25 nM

B2: M13-C06 Fab (Fab, V domains shown)
VH: EVQLLESGGGLVQPGGSLRLSCAASGFTFSIYRMQWVRQAPGKGLEWVSGISPSGGTTWYADSVKGRFTISRDNSKNTLYLQMNSLRAEDTAVYYCARWSGGSGYAFDIWGQGTMVTVSS
VL: DIQMTQSPLSLSASVGDRVTITCQASRDIRNYLNWYQQKPGKAPKLLIYDASSLQTGVPSRFGGSGSGTDFSFTIGSLQPEDIATYYCQQFDSLPHTFGQGTKLEIK
notes: Fab made by enzymatic digestion of the IgG
- Biacore Relative RUmax [3]: 0.8
- Biacore Relative RUmax [4]: 0.9
- Biacore Relative RUmax [5]: 0.6
- Biacore Relative RUmax [6]: 1.8
- Biacore Relative RUmax [7]: 2
- Biacore Relative RUmax [8]: 0.3
- Biacore Relative RUmax [9]: 1
- Biacore Relative RUmax [10]: 1.7
- Biacore Relative RUmax [11]: 1.2

From patent US20090130105A1 (Biogen, published 2009)
